Consider 20 molecules from US20240360238A1 (MAGENTA THERAPEUTICS, published 2024).

B1: HC-22/LC-22 (Ab22) (antibody, IgG1, V domains shown)
VH: QVQLKESGPGLVQPSQTLSLTCTVSGFSLTSYLVHWVRQPPGKTLEWVGLMWNDGDTSYNSALKSRLSISRDTSKSQVFLKMHSLQAEDTATYYCARESNLGFTYWGHGTLVTVSS
VL: DIQMTQSPASLSASLEEIVTITCKASQGIDDDLSWYQQKPGKSPQLLIYDVTRLADGVPSRFSGSRSGTQYSLKISRPQVADSGIYYCLQSYSTPYTFGAGTKLELK
notes: From rat immunization/hybridoma; purified IgG in BLI; also called 022
B2: HC-24/LC-24 (Ab24) (antibody, IgG1, V domains shown)
VH: EVQLVESGGGLVQSGRSLKLSCAASGFTVSDYYMAWVRQAPTKGLEWVATINYDGSTTYHRDSVKGRFTISRDNAKSTLYLQMDSLRSEDTATYYCARHGDYGYHYGAYYFDYWGQGVMVTVSS
VL: DIVLTQSPALAVSLGQRATISCRASQTVSLSGYNLIHWYQQRTGQQPKLLIYRASNLAPGIPARFSGSGSGTDFTLTISPVQSDDIATYYCQQSRESWTFGGGTNLEMK
notes: From rat immunization/hybridoma; purified IgG in BLI; also called 024
B3: HC-27/LC-27 (Ab27) (antibody, IgG1, V domains shown)
VH: EVQLVESGGGLVQPGRSMKLSCKASGFTFSNYDMAWVRQAPTRGLEWVASISYDGITAYYRDSVKGRFTISRENAKSTLYLQLVSLRSEDTATYYCTTEGGYVYSGPHYFDYWGQGVMVTVSS
VL: DIQMTQSPSSMSVSLGDTVTITCRASQDVGIFVNWFQQKPGRSPRRMIYRATNLADGVPSRFSGSRSGSDYSLTISSLESEDVADYHCLQYDEFPRTFGGGTKLELK
notes: From rat immunization/hybridoma; purified IgG in BLI; also called 027
B4: HC-25/LC-25 (Ab25) (antibody, IgG1, V domains shown)
VH: QIQLVQSGPELKKPGESVKISCKASGYTFTDYAIHWVKQAPGQGLRWMAWINTETGKPTYADDFKGRFVFSLEASASTAHLQISNLKNEDTATFFCAGGSHWFAYWGQGTLVTVSS
VL: SYELIQPPSASVTLENTVSITCSGDELSNKYAHWYQQKPDKTILEVIYNDSERPSGISDRFSGSSSGTTAILTIRDAQAEDEADYYCLSTFSDDDLPIFGGGTKLTVL
notes: From rat immunization/hybridoma; purified IgG in BLI; also called 025
B5: HC-79/LC-79 (Ab79) (antibody, IgG1, V domains shown)
VH: QVQLVQSGAAVKKPGESLKISCKGSGYRFTTYWIGWVRQMPGKGLEWMGIIYPGDSDTRYSPSFQGQVTISAGKSISTAYLQWSSLKASDTAMYYCARHGRGYNGYEGAFDIWGQGTMVTVSS
VL: DIQLTQSPSSLSASVGDRVTITCRASQGVGSALAWYQQKPGKAPKLLIYDASILESGVPSRFSGSGSGTDFTLTISSLQPEDFATYYCQQFNSYPLTFGGGTKVEIK
notes: Purified human antibody tested as an IgG1; hIgG1/hKappa; also called Antibody 79
B6: HC-1/LC-1 (Ab1) (antibody, IgG1, V domains shown)
VH: B5 VH
VL: B5 VL with D1A, G30S, I53S
notes: Purified IgG (IgG1); also called 001; CK6 derivative Ab1
B7: HC-81/LC-81 (Ab81) (antibody, IgG1, V domains shown)
VH: B5 VH
VL: B5 VL with G30I, I53T
notes: Purified human antibody tested as an IgG1; hIgG1/hKappa; also called Antibody 81
B8: HC-77/LC-77 (Ab77) (antibody, IgG1, V domains shown)
VH: B5 VH
VL: B5 VL with G30I
notes: Purified human antibody tested as an IgG1; hIgG1/hKappa; also called Antibody 77
B9: HC-77/LC-77 anti-CD117-ADC (conjugated to an amatoxin) (antibody, V domains shown)
VH: B5 VH
VL: B5 VL with G30I
modifications: antibody conjugated to an amatoxin; site not stated
B10: HC-247/LC-247 anti-CD117-ADC (conjugated to an amatoxin) (antibody, V domains shown)
VH: B5 VH
VL: DIQMTQSPSSLSASVGDRVTITCRASRGISDYLAWYQQKPGKAPKLLIYDASNLETGVPSRFSGSGSGTDFTLTISSLQPEDFATYYCQQANSFPITFGQGTRLEIK
modifications: antibody conjugated to an amatoxin; site not stated
B11: HC-246/LC-246 anti-CD117-ADC (conjugated to an amatoxin) (antibody, V domains shown)
VH: B5 VH
VL: B5 VL with L4M, V29I, I53T, S93G, G100Q, K103R, V104L
modifications: antibody conjugated to an amatoxin; site not stated
B12: HC-81/LC-81 anti-CD117-ADC (conjugated to an amatoxin) (antibody, V domains shown)
VH: B5 VH
VL: B5 VL with G30I, I53T
modifications: antibody conjugated to an amatoxin; site not stated
B13: HC-79/LC-79 anti-CD117-ADC (conjugated to an amatoxin) (antibody, V domains shown)
VH: B5 VH
VL: B5 VL
modifications: antibody conjugated to an amatoxin; site not stated
B14: HC-248/LC-248 anti-CD117-ADC (conjugated to an amatoxin) (antibody, V domains shown)
VH: B5 VH with Q1E, A10E, Y32S, G73D, R101L, M118L
VL: B5 VL with L4M, V29I, I53T, F91L, S93G, G100Q, K103R, V104L
modifications: antibody conjugated to an amatoxin; site not stated
B15: HC-245/LC-245 anti-CD117-ADC (conjugated to an amatoxin) (antibody, V domains shown)
VH: B5 VH with Q1E, A10E, Y32S, G73D, R101L, M118L
VL: B5 VL with L4M, V29I, I53T, S93G, G100Q, K103R, V104L
modifications: antibody conjugated to an amatoxin; site not stated
B16: HC-247/LC-247 (Ab247) (antibody, V domains shown)
VH: B5 VH
VL: B10 VL
notes: IgG on anti-human Fc sensors; hIgG1/hKappa
B17: HC-249/LC-249 (Ab249) (antibody, V domains shown)
VH: B5 VH with Q1E, A10E, Y32S, G73D, R101L, M118L
VL: B10 VL with R27Q, S30G, D31S, Y32A, A91L, S93G, F94Y, I96L
notes: as for B16
B18: HC-245/LC-245 (Ab245) (antibody, V domains shown)
VH: B5 VH with Q1E, A10E, Y32S, G73D, R101L, M118L
VL: B5 VL with L4M, V29I, I53T, S93G, G100Q, K103R, V104L
notes: as for B16
B19: HC-248/LC-248 (Ab248) (antibody, V domains shown)
VH: B5 VH with Q1E, A10E, Y32S, G73D, R101L, M118L
VL: B5 VL with L4M, V29I, I53T, F91L, S93G, G100Q, K103R, V104L
notes: as for B16
B20: HC-246/LC-246 (Ab246) (antibody, V domains shown)
VH: B5 VH
VL: B5 VL with L4M, V29I, I53T, S93G, G100Q, K103R, V104L
notes: as for B16

Numbering of substitutions follows the chain as printed.

Chain of CD117 on Kasumi-1 cells and primary human CD34+ bone marrow cells (P10721 26-976): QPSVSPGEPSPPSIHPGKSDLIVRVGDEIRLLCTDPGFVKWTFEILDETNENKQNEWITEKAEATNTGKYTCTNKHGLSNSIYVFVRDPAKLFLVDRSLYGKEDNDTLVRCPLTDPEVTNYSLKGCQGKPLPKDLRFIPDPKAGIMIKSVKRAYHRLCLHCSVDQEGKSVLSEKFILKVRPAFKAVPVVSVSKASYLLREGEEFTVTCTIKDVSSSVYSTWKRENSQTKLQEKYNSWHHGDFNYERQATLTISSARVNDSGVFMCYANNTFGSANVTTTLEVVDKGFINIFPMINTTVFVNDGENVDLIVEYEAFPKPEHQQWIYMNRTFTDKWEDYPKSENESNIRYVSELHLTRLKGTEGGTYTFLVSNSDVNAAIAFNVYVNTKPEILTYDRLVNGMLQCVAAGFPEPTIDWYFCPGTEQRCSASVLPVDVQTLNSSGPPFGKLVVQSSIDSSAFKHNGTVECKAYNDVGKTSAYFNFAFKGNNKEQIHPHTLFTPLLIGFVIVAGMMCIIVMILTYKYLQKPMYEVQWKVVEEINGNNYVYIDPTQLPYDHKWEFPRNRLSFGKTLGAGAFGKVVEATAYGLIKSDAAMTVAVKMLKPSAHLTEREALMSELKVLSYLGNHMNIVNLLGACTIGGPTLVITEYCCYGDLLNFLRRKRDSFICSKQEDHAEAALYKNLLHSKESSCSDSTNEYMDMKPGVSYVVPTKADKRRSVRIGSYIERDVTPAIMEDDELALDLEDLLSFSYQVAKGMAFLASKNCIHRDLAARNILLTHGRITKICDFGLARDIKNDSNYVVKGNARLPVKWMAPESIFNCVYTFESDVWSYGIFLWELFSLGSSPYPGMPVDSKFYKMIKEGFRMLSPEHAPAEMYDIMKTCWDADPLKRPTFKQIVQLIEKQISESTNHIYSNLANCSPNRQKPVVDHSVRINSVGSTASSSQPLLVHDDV

In the first assay the target is T1, purified rhesus CD117 ectodomain (rhesus, UniProt F6V858 26-524).
T1 construct: extracellular domain; also called rhesus antigen
In words: BLI, purified IgG on sensor, soluble rhesus ectodomain; apparent monovalent.
For the molecule B1, the Kd amounted to 0.0891 nM, the koff is 0.000155 s⁻¹ and the kon turned out to be 1.74e+06 M⁻¹ s⁻¹.
B2: the Kd stood at 19.6 nM, the koff was found to be 0.000777 s⁻¹ and the kon is 39700 M⁻¹ s⁻¹.
As for B3, the Kd stood at 0.89 nM, the koff was 0.000275 s⁻¹ and the kon worked out at 309000 M⁻¹ s⁻¹.
For the molecule B4, the Kd came out at 0.81 nM, the koff is 0.00195 s⁻¹ and the on-rate constant (kon) turned out to be 2.41e+06 M⁻¹ s⁻¹.

The target of the next assay is T2, purified human CD117 ectodomain (R&D Systems #332-SR) (human, UniProt P10721 26-524).
T2 construct: extracellular domain; Bought protein; also called c-kit; purified recombinant human CD117 ectodomain
T2 sequence (P10721 26-524): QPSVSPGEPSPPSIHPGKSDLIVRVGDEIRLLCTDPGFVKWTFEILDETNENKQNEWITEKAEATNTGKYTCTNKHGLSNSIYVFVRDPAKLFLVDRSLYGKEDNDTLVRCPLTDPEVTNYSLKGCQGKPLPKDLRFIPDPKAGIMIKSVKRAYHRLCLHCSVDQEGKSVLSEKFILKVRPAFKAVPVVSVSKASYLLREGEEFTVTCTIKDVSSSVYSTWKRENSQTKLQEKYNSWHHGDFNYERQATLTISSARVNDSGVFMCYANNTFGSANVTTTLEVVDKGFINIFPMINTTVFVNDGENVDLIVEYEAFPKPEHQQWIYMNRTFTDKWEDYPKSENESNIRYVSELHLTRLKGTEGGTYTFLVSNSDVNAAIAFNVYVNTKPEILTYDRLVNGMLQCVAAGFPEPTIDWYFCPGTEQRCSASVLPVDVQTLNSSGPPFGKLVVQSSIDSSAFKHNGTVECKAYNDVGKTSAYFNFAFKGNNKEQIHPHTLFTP
The assay is described as follows: BLI (Octet Red96), IgG1 on anti-human Fc sensor, 33.3 and 11 nM ectodomain, 1:1 fit.
B5 registered a Kd of 1.52 nM, a dissociation rate constant (koff) of 0.000478 s⁻¹ and an association rate constant (kon) of 316000 M⁻¹ s⁻¹.
As for B6, the Kd came out at 3.1 nM, the koff was 0.0013 s⁻¹ and the kon was determined as 420000 M⁻¹ s⁻¹.
B7 displayed a Kd of 0.877 nM, an off-rate (koff) of 0.000252 s⁻¹ and a kon of 288000 M⁻¹ s⁻¹.
The corresponding values for B8 are 0.684 nM, 0.000215 s⁻¹ and 315000 M⁻¹ s⁻¹.

Another assay addresses CD117 on Kasumi-1 cells and primary human CD34+ bone marrow cells (human, UniProt P10721 26-976). In words: cell-based or functional assay.
B9: the “% efficacy, killing of primary human CD34+CD90+ cells” value (“% efficacy, killing” for short) worked out at 54.4% and the “IC50, killing of primary human CD34+CD90+ cells (5 days, flow cytometry counts)” value (shortened to “IC50, killing”) turned out to be 6.94 pM.
For B10 the same measures were 55.4% and 8.37 pM.
For B11, the “% efficacy, killing” value is 67.8% and the “IC50, killing” value worked out at 4.53 pM.
As for B12, the “% efficacy, killing” value was 68.7% and the “IC50, killing” value stood at 3.77 pM.
Take B13: the “% efficacy, killing” value worked out at 63.4% and the “IC50, killing” value was determined as 7.09 pM.
Regarding B14, the “% efficacy, killing” value was found to be 47.8% and the “IC50, killing” value was 6.46 pM.
Turning to B15, the “% efficacy, killing” value turned out to be 76.4% and the “IC50, killing” value was 5.78 pM.

For another assay, the target named is T2, purified human CD117 ectodomain (R&D …). The assay is described as follows: BLI; kdis compared to HC-1/LC-1 (Ab1).
B16: the “Fold improvement (off-rate)” value was 3.6 fold.
As for B17, the “Fold improvement (off-rate)” value was 12 fold.
The same measure, in the same setting: for B18 the value was 7.9 fold.
As for B5, the “Fold improvement (off-rate)” value worked out at 4.7 fold.
B19: the “Fold improvement (off-rate)” value came to 7.1 fold.
For B20, the “Fold improvement (off-rate)” value was 8.9 fold.
For the molecule B7, the “Fold improvement (off-rate)” value was 9 fold.
As for B8, the “Fold improvement (off-rate)” value is 10.5 fold.

For another assay the target is unchanged. In words: BLI (Octet Red96), IgG on anti-human Fc sensor, 33.3 and 11 nM ectodomain.
Turning to B6, the Kd is 4.09 nM, the koff is 0.00227 s⁻¹ and the kon turned out to be 556000 M⁻¹ s⁻¹.

Another assay shares this target. In words: BLI, purified IgG on sensor, soluble ectodomain; apparent monovalent.
Take B6: the Kd was 2.81 nM, the koff was determined as 0.000848 s⁻¹ and the kon was 302000 M⁻¹ s⁻¹.
Turning to B1, the Kd worked out at 0.0964 nM, the koff came to 0.000221 s⁻¹ and the kon came out at 2.29e+06 M⁻¹ s⁻¹.
The corresponding values for B2 are 0.986 nM, 0.00011 s⁻¹ and 111000 M⁻¹ s⁻¹.
Take B3: the Kd came out at 0.53 nM, the koff came to 0.000378 s⁻¹ and the kon was found to be 712000 M⁻¹ s⁻¹.
In the case of B4, the Kd stood at 0.52 nM, the koff was 0.00153 s⁻¹ and the kon was 2.94e+06 M⁻¹ s⁻¹.

The next assay has the same target. In words: BLI, IgG on anti-human Fc sensor, 33 and 11 nM ectodomain.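 Also: Kd, kon and koff are apparent values, with Kd reported as the apparent monovalent affinity.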
As for B16, the Kd amounted to 1.68 nM, the koff was determined as 0.00063 s⁻¹ and the kon amounted to 374000 M⁻¹ s⁻¹.
As to B17, the Kd came out at 0.551 nM, the koff was found to be 0.000189 s⁻¹ and the kon was 344000 M⁻¹ s⁻¹.
Take B18: the Kd is 0.813 nM, the koff was determined as 0.000285 s⁻¹ and the kon was 350000 M⁻¹ s⁻¹.
In turn, B5 displayed a Kd of 1.52 nM, a koff of 0.000478 s⁻¹ and a kon of 316000 M⁻¹ s⁻¹.
B19 registered a Kd of 0.922 nM, a koff of 0.000319 s⁻¹ and a kon of 346000 M⁻¹ s⁻¹.
On to B20, for which the Kd stood at 0.708 nM, the koff is 0.000255 s⁻¹ and the kon worked out at 361000 M⁻¹ s⁻¹.
As to B6, the Kd stood at 4.09 nM, the koff is 0.00227 s⁻¹ and the kon was determined as 556000 M⁻¹ s⁻¹.
Take B7: the Kd came out at 0.877 nM, the koff worked out at 0.000252 s⁻¹ and the kon turned out to be 288000 M⁻¹ s⁻¹.
Regarding B8, the Kd worked out at 0.684 nM, the koff worked out at 0.000215 s⁻¹ and the kon came out at 315000 M⁻¹ s⁻¹.
